The results in this text go back to patent US20180022822A1, “NOVEL ANTI-FIBROBLAST ACTIVATION PROTEIN (FAP) BINDING AGENTS AND USES THEREOF” (Mabimmune Diagnostics AG, priority 2016, published 2018).

For this experiment, the system named is arterial occlusion (thrombosis). The experiment is described as follows: carotid artery photochemical injury-induced thrombosis model. The class given is in vivo, mouse. The procedure:
The carotid artery photochemical injury-induced thrombosis model begins with anesthesia by intraperitoneal injection of sodium pentobarbital (87 mg/kg body weight). After slight tail warming (using warm water) rose bengal (10 mg/mL in PBS) is injected into the tail vein in a volume of 0.12 mL at a concentration of 50 mg/kg. Mice will then be secured in a supine position (with the head pointing towards the operator) and placed on a heating pad (rectal temperature will be monitored) under a dissecting microscope. Following a (2.5-3 cm) midline cervical incision and a small incision of the larynx to provide a tracheostoma, by blunt preparation the right common carotid artery is exposed and cleared of connective tissue. A surgical stitch is employed to fix the sternocleidomastoid muscle aside to the right and increase access area to the right carotid artery. Care must be taken to avoid excessive vessel manipulation during procedures. Curved-tip tweezers will be employed to slide under the vessel (from the left side) and gently lift it so as to place the probe under and around it. The probe will be placed as proximal as the access area allows it to be and its connection wire should then be placed on a micromanipulator to fine-adjust its position. (The probe should be perfectly aligned with the vessel so as not to cause any resistance to flow). Little surgical ultrasonic gel should be applied on top of the probe to increase signal quality. Within 6 minutes of Rose Bengal injection, a laser beam will be aimed at the carotid artery and kept at fixed distance of 6 cm for 60 minutes. Flow will be measured during these 60 minutes and for further 60 minutes (max time elapse 120 minutes) or until occlusion occurs. Occlusion is considered as a constant (≧1 min) flow below 0.1 ml/min. Mice are euthanized by an overdose of pentobarbital immediately (25 mg) after the occlusion analysis is completed.
Mice will be placed on a heating pad, to avoid a drop of body temperature. Heart rate (probe measuring the blood flow will also measure the heart rate) will be monitored during the surgery. Anethesia depth will be checked before starting the surgery and during the experiment by pedal withdrawal reflex (animals hind limb will be extended and the interdigital webbing of the foot will firmly pinched by the use of an atraumatic forceps; if there is no withdrawal reaction to the toe pinch, animals will be judged deep enough).
The chosen dose of anesthesia sodium pentobarbital (87 mg/kg body weight) is sufficient to keep the animal in deep anesthesia for the whole duration of the experiment. No second dosing is necessary. […]

B1: NI-206.82C2: human-derived recombinant anti-FAP antibody; VH SEQ ID NO: 2 or 4 (PIMC), VL SEQ ID NO: 6 (antibody, V domains shown)
VH: QVQLQQSGPGLVKPSQTLSLTCAISGDSVSSNSVTWNWIRQSPSRGLEWLGRTYYRSKWYNDYAVSVKGRITINPDTSKNQFYLQLKSVTPEDAAVYYCARDSSILYGDYWGQGTLVTVSS
VL: QAVLTQPSSLSASPGASASLTCTLPSGINVGTYRIFWFQQKPGSPPQYLLSYKSDSDNHQGSGVPSRFSGSKDASANAGILLISGLQSEDEADYYCMIWHSSAWVFGGGTKLTVL
For the molecule B1, the occlusion time entry (20 mg/kg i.v. versus vehicle control, n=4) is given as “significantly prolonged”. Further, for the setting “2, 7 and 20 mg/kg versus PBS and 43A11”, the “median time to occlusion” value is listed as “dose-dependent increase”. The “Log-rank hazard ratio of arterial occlusion” value (versus 43A11 isotype control) is listed as 0.04. The “dose at which significant increase in median time to occlusion starts” value (versus PBS and 43A11 at 20 mg/kg) is given as 2 mg/kg.
